B1: D41A/D42A mutant PCNA protein from Saccharomyces cerevisiae (natural protein)
chain: MLEAKFEEASLFKRIIDGFKDCVQLVNFQCKEDGIIAQAVAASRVLLVSLEIGVEAFQEYRCDHPVTLGMDLTSLSKILRCGNNTDTLTLIADNTPDSIILLFEDTKKDRIAEYSLKLMDIDADFLKIEELQYDSTLSLPSSEFSKIVRDLSQLSDSINIMITKETIKFVADGDIGSGSVIIKPFVDMEHPETSIKLEMDQPVDLTFGAKYLLDIIKGSSLSDRVGIRLSSEAPALFQFDLKSGFLQFFLAPKFNDEE
notes: PCNA, Saccharomyces cerevisiae, with D41A and D42A; also called D41A/D42A PCNA; encoded by the pol30-6 allele; source: E. coli, overexpressed, purified as described previously [35]
B2: L126A/I128A mutant PCNA protein from Saccharomyces cerevisiae (natural protein)
chain: MLEAKFEEASLFKRIIDGFKDCVQLVNFQCKEDGIIAQAVDDSRVLLVSLEIGVEAFQEYRCDHPVTLGMDLTSLSKILRCGNNTDTLTLIADNTPDSIILLFEDTKKDRIAEYSLKLMDIDADFAKAEELQYDSTLSLPSSEFSKIVRDLSQLSDSINIMITKETIKFVADGDIGSGSVIIKPFVDMEHPETSIKLEMDQPVDLTFGAKYLLDIIKGSSLSDRVGIRLSSEAPALFQFDLKSGFLQFFLAPKFNDEE
notes: PCNA, Saccharomyces cerevisiae, with L126A and I128A; also called L126A/I128A PCNA; encoded by the pol30-79 allele; source: E. coli, overexpressed, purified as described previously [35]
B3: R61A/D63A mutant PCNA protein from Saccharomyces cerevisiae (natural protein)
chain: MLEAKFEEASLFKRIIDGFKDCVQLVNFQCKEDGIIAQAVDDSRVLLVSLEIGVEAFQEYACAHPVTLGMDLTSLSKILRCGNNTDTLTLIADNTPDSIILLFEDTKKDRIAEYSLKLMDIDADFLKIEELQYDSTLSLPSSEFSKIVRDLSQLSDSINIMITKETIKFVADGDIGSGSVIIKPFVDMEHPETSIKLEMDQPVDLTFGAKYLLDIIKGSSLSDRVGIRLSSEAPALFQFDLKSGFLQFFLAPKFNDEE
notes: PCNA, Saccharomyces cerevisiae, with R61A and D63A; also called R61A/D63A PCNA; encoded by the pol30-8 allele; source: E. coli, overexpressed, purified as described previously [35]

Biological target: the molecule itself
Assay: native gel or EMSA; proteins at 0.1, 0.5, 1.0 mg/ml in 10 mM Tris-Cl pH 7.6, 150 mM NaCl, 2.5% Ficoll-400, 10 mM EDTA, 5 min; 4-20% gradient nondenaturing Tris-Glycine gel at 4°C; Coomassie blue; self-association (trimer)

Q: With B1 as the protein, how does the “stoichiometry N” value read?
A: The value was 3.

Q: With B2 as the protein, how does the “stoichiometry N” value read?
A: The value was 3.

Q: For B3, which “stoichiometry N” value is on record?
A: The value was 3.
